# Source: patent US20230025039
# Key:
# [1] = tested on: Cas13b-t1-REPAIR R and H to A in both HEPN domains (numbering not given) (Atlantic deep subsurface metagenome); experiment: cell_activity; conditions: non-targeting control
# [2] = tested on: Cas13b-t3-REPAIR R and H to A in both HEPN domains (numbering not given) (Planctomycetes bacterium isolate B28_G16); experiment: cell_activity; conditions: non-targeting control
Substance,activity (normalized RLU) [1],activity (normalized RLU) [2]
non-targeting editing gRNA (b-t1) ; Cypridina luciferase W85X mRNA,0.00795,
non-targeting editing gRNA (b-t3) ; Cypridina luciferase W85X mRNA,,0.00368
